The labels stand for the following.
B1: C, D, E: E. coli GUS mutein, Cys 197 to Ser, Cys 253 to Glu, Cys 262 to Ser (protein, UniProt P05804 1-603, looked up, variant C197S C253E C262S)
Beta-glucuronidase: MLRPVETPTREIKKLDGLWAFSLDRENCGIDQRWWESALQESRAIAVPGSFNDQFADADIRNYAGNVWYQREVFIPKGWAGQRIVLRFDAVTHYGKVWVNNQEVMEHQGGYTPFEADVTPYVIAGKSVRITVCVNNELNWQTIPPGMVITDENGKKKQSYFHDFFNYAGIHRSVMLYTTPNTWVDDITVVTHVAQDSNHASVDWQVVANGDVSVELRDADQQVVATGQGTSGTLQVVNPHLWQPGEGYLYELEVTAKSQTESDIYPLRVGIRSVAVKGEQFLINHKPFYFTGFGRHEDADLRGKGFDNVLMVHDHALMDWIGANSYRTSHYPYAEEMLDWADEHGIVVIDETAAVGFNLSLGIGFEAGNKPKELYSEEAVNGETQQAHLQAIKELIARDKNHPSVVMWSIANEPDTRPQGAREYFAPLAEATRKLDPTRPITCVNVMFCDAHTDTISDLFDVLCLNRYYGWYVQSGDLETAEKVLEKELLAWQEKLHQPIIITEYGVDTLAGLHSMYTDMWSEEYQCAWLDMYHRVFDRVSAVVGEQVWNFADFATSQGILRVGGNKKGIFTRDRKPKSAAFLLQKRWTGMNFGEKPQQGGKQ
B2: B, C, D, E: E. coli GUS mutein, Cys 133, 197, 253, 262 changed to Ala, Ser, Glu, Ser (protein, UniProt P05804 1-603, looked up, variant C133A C197S C253E C262S)
Beta-glucuronidase: MLRPVETPTREIKKLDGLWAFSLDRENCGIDQRWWESALQESRAIAVPGSFNDQFADADIRNYAGNVWYQREVFIPKGWAGQRIVLRFDAVTHYGKVWVNNQEVMEHQGGYTPFEADVTPYVIAGKSVRITVAVNNELNWQTIPPGMVITDENGKKKQSYFHDFFNYAGIHRSVMLYTTPNTWVDDITVVTHVAQDSNHASVDWQVVANGDVSVELRDADQQVVATGQGTSGTLQVVNPHLWQPGEGYLYELEVTAKSQTESDIYPLRVGIRSVAVKGEQFLINHKPFYFTGFGRHEDADLRGKGFDNVLMVHDHALMDWIGANSYRTSHYPYAEEMLDWADEHGIVVIDETAAVGFNLSLGIGFEAGNKPKELYSEEAVNGETQQAHLQAIKELIARDKNHPSVVMWSIANEPDTRPQGAREYFAPLAEATRKLDPTRPITCVNVMFCDAHTDTISDLFDVLCLNRYYGWYVQSGDLETAEKVLEKELLAWQEKLHQPIIITEYGVDTLAGLHSMYTDMWSEEYQCAWLDMYHRVFDRVSAVVGEQVWNFADFATSQGILRVGGNKKGIFTRDRKPKSAAFLLQKRWTGMNFGEKPQQGGKQ
B3: I: E. coli GUS mutein, Cys 527 changed to Lys (protein, UniProt P05804 1-603, looked up, variant C527K)
Beta-glucuronidase: MLRPVETPTREIKKLDGLWAFSLDRENCGIDQRWWESALQESRAIAVPGSFNDQFADADIRNYAGNVWYQREVFIPKGWAGQRIVLRFDAVTHYGKVWVNNQEVMEHQGGYTPFEADVTPYVIAGKSVRITVCVNNELNWQTIPPGMVITDENGKKKQSYFHDFFNYAGIHRSVMLYTTPNTWVDDITVVTHVAQDCNHASVDWQVVANGDVSVELRDADQQVVATGQGTSGTLQVVNPHLWQPGEGYLYELCVTAKSQTECDIYPLRVGIRSVAVKGEQFLINHKPFYFTGFGRHEDADLRGKGFDNVLMVHDHALMDWIGANSYRTSHYPYAEEMLDWADEHGIVVIDETAAVGFNLSLGIGFEAGNKPKELYSEEAVNGETQQAHLQAIKELIARDKNHPSVVMWSIANEPDTRPQGAREYFAPLAEATRKLDPTRPITCVNVMFCDAHTDTISDLFDVLCLNRYYGWYVQSGDLETAEKVLEKELLAWQEKLHQPIIITEYGVDTLAGLHSMYTDMWSEEYQKAWLDMYHRVFDRVSAVVGEQVWNFADFATSQGILRVGGNKKGIFTRDRKPKSAAFLLQKRWTGMNFGEKPQQGGKQ
B4: A, B, C, D, E: E. coli GUS mutein, Cys 28, 133, 197, 253, 262 changed to Asn, Ala, Ser, Glu, Ser (protein, UniProt P05804 1-603, looked up, variant C28N C133A C197S C253E C262S)
Beta-glucuronidase: MLRPVETPTREIKKLDGLWAFSLDRENNGIDQRWWESALQESRAIAVPGSFNDQFADADIRNYAGNVWYQREVFIPKGWAGQRIVLRFDAVTHYGKVWVNNQEVMEHQGGYTPFEADVTPYVIAGKSVRITVAVNNELNWQTIPPGMVITDENGKKKQSYFHDFFNYAGIHRSVMLYTTPNTWVDDITVVTHVAQDSNHASVDWQVVANGDVSVELRDADQQVVATGQGTSGTLQVVNPHLWQPGEGYLYELEVTAKSQTESDIYPLRVGIRSVAVKGEQFLINHKPFYFTGFGRHEDADLRGKGFDNVLMVHDHALMDWIGANSYRTSHYPYAEEMLDWADEHGIVVIDETAAVGFNLSLGIGFEAGNKPKELYSEEAVNGETQQAHLQAIKELIARDKNHPSVVMWSIANEPDTRPQGAREYFAPLAEATRKLDPTRPITCVNVMFCDAHTDTISDLFDVLCLNRYYGWYVQSGDLETAEKVLEKELLAWQEKLHQPIIITEYGVDTLAGLHSMYTDMWSEEYQCAWLDMYHRVFDRVSAVVGEQVWNFADFATSQGILRVGGNKKGIFTRDRKPKSAAFLLQKRWTGMNFGEKPQQGGKQ
B5: C: E. coli GUS mutein, Cys 197 changed to Ser (protein, UniProt P05804 1-603, looked up, variant C197S)
Beta-glucuronidase: MLRPVETPTREIKKLDGLWAFSLDRENCGIDQRWWESALQESRAIAVPGSFNDQFADADIRNYAGNVWYQREVFIPKGWAGQRIVLRFDAVTHYGKVWVNNQEVMEHQGGYTPFEADVTPYVIAGKSVRITVCVNNELNWQTIPPGMVITDENGKKKQSYFHDFFNYAGIHRSVMLYTTPNTWVDDITVVTHVAQDSNHASVDWQVVANGDVSVELRDADQQVVATGQGTSGTLQVVNPHLWQPGEGYLYELCVTAKSQTECDIYPLRVGIRSVAVKGEQFLINHKPFYFTGFGRHEDADLRGKGFDNVLMVHDHALMDWIGANSYRTSHYPYAEEMLDWADEHGIVVIDETAAVGFNLSLGIGFEAGNKPKELYSEEAVNGETQQAHLQAIKELIARDKNHPSVVMWSIANEPDTRPQGAREYFAPLAEATRKLDPTRPITCVNVMFCDAHTDTISDLFDVLCLNRYYGWYVQSGDLETAEKVLEKELLAWQEKLHQPIIITEYGVDTLAGLHSMYTDMWSEEYQCAWLDMYHRVFDRVSAVVGEQVWNFADFATSQGILRVGGNKKGIFTRDRKPKSAAFLLQKRWTGMNFGEKPQQGGKQ
B6: A: E. coli GUS mutein, Cys 28 changed to Asn (protein, UniProt P05804 1-603, looked up, variant C28N)
Beta-glucuronidase: MLRPVETPTREIKKLDGLWAFSLDRENNGIDQRWWESALQESRAIAVPGSFNDQFADADIRNYAGNVWYQREVFIPKGWAGQRIVLRFDAVTHYGKVWVNNQEVMEHQGGYTPFEADVTPYVIAGKSVRITVCVNNELNWQTIPPGMVITDENGKKKQSYFHDFFNYAGIHRSVMLYTTPNTWVDDITVVTHVAQDCNHASVDWQVVANGDVSVELRDADQQVVATGQGTSGTLQVVNPHLWQPGEGYLYELCVTAKSQTECDIYPLRVGIRSVAVKGEQFLINHKPFYFTGFGRHEDADLRGKGFDNVLMVHDHALMDWIGANSYRTSHYPYAEEMLDWADEHGIVVIDETAAVGFNLSLGIGFEAGNKPKELYSEEAVNGETQQAHLQAIKELIARDKNHPSVVMWSIANEPDTRPQGAREYFAPLAEATRKLDPTRPITCVNVMFCDAHTDTISDLFDVLCLNRYYGWYVQSGDLETAEKVLEKELLAWQEKLHQPIIITEYGVDTLAGLHSMYTDMWSEEYQCAWLDMYHRVFDRVSAVVGEQVWNFADFATSQGILRVGGNKKGIFTRDRKPKSAAFLLQKRWTGMNFGEKPQQGGKQ
B7: B: E. coli GUS mutein, Cys 133 changed to Ala (protein, UniProt P05804 1-603, looked up, variant C133A)
Beta-glucuronidase: MLRPVETPTREIKKLDGLWAFSLDRENCGIDQRWWESALQESRAIAVPGSFNDQFADADIRNYAGNVWYQREVFIPKGWAGQRIVLRFDAVTHYGKVWVNNQEVMEHQGGYTPFEADVTPYVIAGKSVRITVAVNNELNWQTIPPGMVITDENGKKKQSYFHDFFNYAGIHRSVMLYTTPNTWVDDITVVTHVAQDCNHASVDWQVVANGDVSVELRDADQQVVATGQGTSGTLQVVNPHLWQPGEGYLYELCVTAKSQTECDIYPLRVGIRSVAVKGEQFLINHKPFYFTGFGRHEDADLRGKGFDNVLMVHDHALMDWIGANSYRTSHYPYAEEMLDWADEHGIVVIDETAAVGFNLSLGIGFEAGNKPKELYSEEAVNGETQQAHLQAIKELIARDKNHPSVVMWSIANEPDTRPQGAREYFAPLAEATRKLDPTRPITCVNVMFCDAHTDTISDLFDVLCLNRYYGWYVQSGDLETAEKVLEKELLAWQEKLHQPIIITEYGVDTLAGLHSMYTDMWSEEYQCAWLDMYHRVFDRVSAVVGEQVWNFADFATSQGILRVGGNKKGIFTRDRKPKSAAFLLQKRWTGMNFGEKPQQGGKQ
B8: A, B, C, D, E, I: E. coli GUS mutein, Cys 28, 133, 197, 253, 262, 527 changed to Asn, Ala, Ser, Glu, Ser, Lys (protein, UniProt P05804 1-603, looked up, variant C28N C133A C197S C253E C262S C527K)
Beta-glucuronidase: MLRPVETPTREIKKLDGLWAFSLDRENNGIDQRWWESALQESRAIAVPGSFNDQFADADIRNYAGNVWYQREVFIPKGWAGQRIVLRFDAVTHYGKVWVNNQEVMEHQGGYTPFEADVTPYVIAGKSVRITVAVNNELNWQTIPPGMVITDENGKKKQSYFHDFFNYAGIHRSVMLYTTPNTWVDDITVVTHVAQDSNHASVDWQVVANGDVSVELRDADQQVVATGQGTSGTLQVVNPHLWQPGEGYLYELEVTAKSQTESDIYPLRVGIRSVAVKGEQFLINHKPFYFTGFGRHEDADLRGKGFDNVLMVHDHALMDWIGANSYRTSHYPYAEEMLDWADEHGIVVIDETAAVGFNLSLGIGFEAGNKPKELYSEEAVNGETQQAHLQAIKELIARDKNHPSVVMWSIANEPDTRPQGAREYFAPLAEATRKLDPTRPITCVNVMFCDAHTDTISDLFDVLCLNRYYGWYVQSGDLETAEKVLEKELLAWQEKLHQPIIITEYGVDTLAGLHSMYTDMWSEEYQKAWLDMYHRVFDRVSAVVGEQVWNFADFATSQGILRVGGNKKGIFTRDRKPKSAAFLLQKRWTGMNFGEKPQQGGKQ

The assay has as its system KW1. The assay is described as follows: X-GlcA staining of low-cysteine E. coli GUS muteins in KW1. In kind it is cell-based. The settings on record: pBS backbone in KW1, staining with X-GlcA. The text has this:
Single and multiple Cys muteins are constructed by site-directed mutagenesis techniques. Eight of the nine cysteine residues in E. coli GUS are changed to the corresponding residue found in human GUS based on alignment of the two protein sequences. One of the E. coli GUS cysteine residues, amino acid 463, aligns with a cysteine residue in human GUS and was not altered. The corresponding amino acids between E. coli GUS and human GUS are shown below.
The mutein GUS genes are cloned into a pBS backbone. The mutations are confirmed by diagnostic restriction site changes and by DNA sequence analysis. Recombinant vectors are transfected into KW1 and GUS activity assayed by staining with X-GlcA (5-bromo-4-chloro-3-indolyl-β-D-glucuronide).
Regarding B1, the GUS activity entry is “Yes”.

As to B2, the GUS activity entry is “Yes”.

On to B3, for which the GUS activity result is recorded as “No”.

Take B4: the GUS activity entry is “Yes”.

B5: the GUS activity entry is “Yes”.

B6: the GUS activity result was “Yes”.

Turning to B7, the GUS activity result is reported as “Yes”.

For B8, the GUS activity result is listed as “No”.
